System: MS2 coat protein
Assay: apparent KD of MS2 coat protein; higher = weaker reporter binding
Conditions: Eterna round: R107
Method: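 RNA-MaP round R107: designed RNA switches with theophylline, tryptophan, arginine or FMN aptamers are transcribed on-chip within common flanks. They are titrated with SNAP-549-labelled MS2 coat protein in RNA-MaP buffer (100 mM Tris pH 7.5, 80 mM KCl, 4 mM MgCl2), without ligand or with the indicated ligand. Median apparent KD per design.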

[1] = input ligand: theophylline 20 uM
[2] = input ligand: tryptophan 2.4 mM
[3] = input ligand: theophylline 2 mM

| Sequence | apparent KD of MS2 coat protein (input ligand: arginine 13.2 mM) | apparent KD of MS2 coat protein [1] | apparent KD of MS2 coat protein [2] | apparent KD of MS2 coat protein (input ligand: none) | apparent KD of MS2 coat protein [3] |
| --- | --- | --- | --- | --- | --- |
| ACAUGAGGAUCACCCAUGUUCCUCGCCGAUACCAGUGAAGAAGAACGCCCUUGGCAGCGGAAAGAAUAUUUUGGAGAUGAGAUAU [6.V] | 70.5 nM | 272 nM | 220 nM |  |  |
| ACAUGAGGAUCACCCAUGUUUGAUGUUCCUCGAGGACCGGUACGGCCGCCACUCGAACGAGUGGCACGCGAGUGCGCACUCGCGU [aTa] | 14.3 nM | 19.9 nM | 13.6 nM | 11.3 nM | 15.6 nM |
| ACAUGAGGCUCACCCAUGUGUAGUGGGUGGCGAGGACCGGUACGGCCGCCACUCGGCAACAUGAGGAUCACCCAUGUAAGGCCCU [RNA Blob] | 39.6 nM | 134 nM | 35 nM | 133 nM | 148 nM |
| ACAUGAGGGAUGGAUACCAGCGACAUGAGGAUCACCCAUGUAUGAGGAUCACCCAUGUUAUGCCCUUGGCAGCCACAAACAUGAG [UUYMULLIN] | 24.8 nM | 20 nM | 16.9 nM | 14.3 nM | 117 nM |
| ACCCAUAAUUGGGCGGGUGGAUUGAGUGAUACCAGUCGUAUACAUGACCCUUGGCAGCACCGACAUGAGGAUCACCCAUGUGCCA [Same State Theophylline A GF23] | 25.9 nM | 38.4 nM | 46 nM |  |  |
| ACCCUAGCGAUCGCUCGCUAGGGUGCGGAUACCAGCGAGGUCCAUCGCCCUUGGCAGCCGAACAUGAGGAUCACCCAUGUCGGUA [#1 Same State - Theophylline A Attempt #19 (HarryS)] | 10.1 nM | 11.6 nM | 10.4 nM |  |  |
| ACCUACACGGAGACGUGUAGGAGUAAUGAUACCAGCAUGGAGACAUGCCCUUGGCAGCGUUACAUGAGGAUCACCCAUGUACGUU [ETHA #3] | 10.4 nM | 15.1 nM | 10.2 nM |  |  |
| ACCUGCGUUUGUUUCUUUCUGACGCAGGUUCGAGGACCGGUACGGCCGCCACUCGGACAUGAGGAUCACCCAUGUUUGAAAUGGG [#01 Exclusion Tryptophan A] | 90.4 nM | 248 nM |  |  | 313 nM |
| ACGACAUGAGGAUCACCCAUGUACUCUGAAGGAGCGUCGAUUACGACAGGUAGGUCGCAGGCUAAGGAUGGUGAUGCUCAAGACG [Exclusion Arginine A GF8] | 53.5 nM | 90.4 nM | 57.8 nM | 87.7 nM | 114 nM |
| ACGACGCAUAGUGAUACCAGUAGAACAUGAGGAUCACCCAUGUCUGUGACGCACCACCUCUGCCCUUGGCAGCACUAUGCGUCAG [SSTheo B #8] | 22.3 nM | 30.3 nM | 23 nM |  |  |
| ACGAUAGCACCUGAGGAUCACCCAGGUGAUACCAGCCUGGAAACAGGCCCUUGGCAGCACCUAAAAUAAAGGUAACUAUCGAAUA [TheoAX6 #MicroSwitchBubble #AlternativeMS2] | 57.3 nM | 251 nM | 48.6 nM | 50.6 nM | 105 nM |
| ACGAUAGGACUUGAGGAUCACCCAGGUGAUACCAGCCUGGAAACAGGCCCUUGGCAGCACUAAUACUCCAAUAACCUAUCGAAUA [TheoAX 16 #MicroSwitchBubble #AlternativeMS2] | 341 nM | 347 nM | 332 nM | 195 nM | 417 nM |
| ACGCUGAUUGAUUACAAUCAGCGAAAAGAUACCAGUGGGUAAUCCCACCCUUGGCAGCUUAAACUUGAGGAUCACCCAGGUGGUA [TheoAS 17 #MS2Right #BothOrNeither #AlternativeMS2] | 88.2 nM | 419 nM | 630 nM | 238 nM | 439 nM |
| ACGCUGCAUAGGAAAACUAUGUAGCGAAAUCGAGGACCGGUACGGCCGCCACUCGUCCUCAACAUGAGGAUCACCCAUGUAAUAA [Mat - Exclusion - Trytophan A - D8] | 20.8 nM | 23.7 nM |  |  | 22.8 nM |
| ACGUCCGGUUUACUCGUGGGCAUGGUCGAUACCAGUAUUUUAAUCUACCCUUGGCAGCGACAUGAGGAUCACCCAUGUGCGAAGA [XTheo A #21] | 21.5 nM | 30.6 nM | 22.8 nM |  |  |
| ACUAGUUGUGCAGAUACCAGACAUGAGGAUCACCCAUGUUUGGGAUCUAAUGAUCAUCCUGUCCCUUGGCAGCUGUACAUCUAGA [Omei Theo B Exc v2] | 51.9 nM | 234 nM | 89.9 nM |  |  |
| ACUAGUUGUGCAGAUACCAGACAUGAGGAUCACCCAUGUUUGGGAUCUAAUGAUCAUCUUGUCCCUUGGCAGCUGUACAUCUAGA [Omei Theo B Exc v1] | 27.1 nM | 72.6 nM | 55.5 nM |  |  |
| AGAAUAUAAUAUAUCAAAGGUAUAACCGAAGGAGCGCCGAAUAAGGCAGGUAGGUCGCGGAAACAUGAGGAUCACCCAUGUCCAU [Arginine A Same State; Euphoria Solution 2] | 19 nM | 23.6 nM | 18.7 nM | 19.1 nM | 16.6 nM |
| AGACAUGAGGAUCACCCAUGUGAAGUGGAUACCAGCCGCAGCGAUGGCCCUUGGCAGCCAGCUUUGUGUCGAUACAUCCGCACUU [theeternabot_exclusion_MS2_Theo_A_2] | 16.9 nM | 22.9 nM | 18.1 nM |  |  |
| AGACGAGAAGAGGUUUACCCAUGUACAGAAGGAGCGUCGUUGACGACAGGUAGGUCGCUGGAAACAUGAGGAUCACCCAUGUUGA [#06 Exclusion - Arginine A] | 27.4 nM | 49.1 nM | 48.3 nM | 40.8 nM | 59.7 nM |
| AGACUGUAAAGUCUACCGGUCAACAAUAAUCGAGGACCGGUACGGCCGCCACUCGAUGUGAUAUACACAUGAGGAUCACCCAUGU [Tryptophan A 16] | 17.2 nM | 22.6 nM |  |  | 19.7 nM |
| AGAGUCAGACAAAAGUCUGGCUCAGCCGAAGGAGCGUCCGAAAGGACAGGUAGGUCGCGGUUACUUGAGGAUCACCCAAGUUCCU [ArgAS 26 #OpenEnded #AlternativeMS2] | 69 nM | 151 nM | 144 nM | 163 nM | 177 nM |
| AGAUAACAUGGUUUAAUAAGUUAAACUGAUACCAGUGUAUAUAAUCACCCUUGGCAGCAGCAACAUGAGGAUCACCCAUGUAAUA [JR_SSTheophyA_Sub013] | 16.2 nM | 19.9 nM | 19.6 nM |  |  |
| AGCACUGUGACGGCCGCCACUACAUAUAGGGUGGUCAGGCCCAUAAUACAUGAGGAUCACCCAUGUAGGACCGGGUCUCAGUGCA [Omei Trp Exc B A v12] | 11.7 nM | 25.4 nM |  |  | 18.3 nM |
| AGCCACUCGAGUGAUCCUCACGAGUGGCUACGAGGACCGGUACGGCCGCCACUCGAAUUAACAUGAGGAUCACCCAUGUAAUCAU [Brourdmod04] | 97.8 nM | 259 nM |  |  | 317 nM |
| AGGACAUGAGGAUCACCCAUGUACACUGAAGGAGCGUCGAGAACGACAGGUAGGUCGCAGGCUAAGGAAGGUGAUGCUCAAGAAG [Exclusion Arginine A GF6] | 28.2 nM | 40.9 nM | 27.1 nM | 26.2 nM | 29.8 nM |
| AGGCAGUAGGUGAUCCACUGCCAAGGUGAUACCAGCAUCGAAAGAUGCCCUUGGCAGCACCAACAUGAGGAUCACCCAUGUAAUA [(MT)''-(M)'-(T')-(Theo)-(Ms2)_Design1/22_9] | 36.9 nM | 186 nM | 99.2 nM |  |  |
| AGGUAUGAUCCGGAUACCAGCGAACAUGAGGAUCACCCAUGUGACCUGAGAUAGGCUCUACGCCCUUGGCAGCCGCGAUCGCAGA [Same State Theophylline B GF11] | 10.1 nM | 14.2 nM | 12.5 nM | 11.4 nM | 9.63 nM |

From the supplement of paper PMC9170038
